The values that follow come from PMC9534319 (2022).

The target of this assay is h219 (VH9/VK2). The assay is described as follows: BLI.

As usually defined, the Kd is the free concentration of one partner at which half of the binding sites on the other are occupied at equilibrium, for simple one-to-one binding.

B1: his tagged human LAIR1 recombinant protein (receptor)
chain: QEEDLPRPSISAEPGTVIPLGSHVTFVCRGPVGVQTFRLERDSRSTYNDTEDVSQASPSESEARFRIDSVREGNAGLYRCIYYKPPKWSEQSDYLELLVKESSGGPDSPDTEPGSSAGPTQRPSDNSHNEHAPASQGLKAEHLY
B1 displayed a dissociation constant (Kd) of 0.66 nM. This lies in the sub-nanomolar range.
